According to patent US20060228350A1 (AstraZeneca / MedImmune, published 2006):
Changes are numbered by the printed parent chain.

Legend:
[1] = biological target: Human EphA2-Fc fusion protein (human EphA2 fused with the Fc portion of a human IgG1) (human) (UniProt P29317); assay: single point capture ELISA, 1 µg goat anti-human Fd, biotinylated EphA2-Fc 300-600 ng/well
[2] = biological target: Human EphA2-Fc fusion protein (human EphA2 fused with the Fc portion of a human IgG1) (human) (UniProt P29317); assay: single point capture ELISA, 100 ng goat anti-human Fab, biotinylated EphA2-Fc 300 ng/well
[3] = biological target: Human EphA2-Fc fusion protein (human EphA2 fused with the Fc portion of a human IgG1) (human) (UniProt P29317); assay: single point capture ELISA, 500 ng goat anti-human Fab; same plate as VH-6H11/VL-8G7
[4] = biological target: Human EphA2-Fc fusion protein (human EphA2 fused with the Fc portion of a human IgG1) (human) (UniProt P29317); assay: single point capture ELISA, 500 ng goat anti-human Fab, biotinylated EphA2-Fc 300 ng/well
[5] = biological target: Human EphA2-Fc fusion protein (human EphA2 fused with the Fc portion of a human IgG1) (human) (UniProt P29317); assay: as above; remark: listed apart in the source
[6] = biological target: Human EphA2-Fc fusion protein (human EphA2 fused with the Fc portion of a human IgG1) (human) (UniProt P29317); assay: single point capture ELISA, 500 ng goat anti-human Fab; same plate as VH-2G6/VL-12C8
[7] = biological target: Human EphA2-Fc fusion protein (human EphA2 fused with the Fc portion of a human IgG1) (human) (UniProt P29317); assay: single point capture ELISA, 500 ng goat anti-human Fab; same plate as VH-233/VL-12C8
[8] = biological target: Human EphA2-Fc fusion protein (human EphA2 fused with the Fc portion of a human IgG1) (human) (UniProt P29317); assay: single point capture ELISA, 500 ng goat anti-human Fab, biotinylated EphA2-Fc 300 ng/well; remark: listed apart in the source
[9] = biological target: Human EphA2-Fc fusion protein (human EphA2 fused with the Fc portion of a human IgG1) (human) (UniProt P29317); assay: single point capture ELISA, 500 ng goat anti-human Fab; same plate as VH-7E8/VL-8G7
[10] = biological target: Human EphA2-Fc fusion protein (human EphA2 fused with the Fc portion of a human IgG1) (human) (UniProt P29317); assay: single point capture ELISA, 500 ng goat anti-human Fab; same plate as VH-233/VL-8G7
[11] = biological target: Human EphA2-Fc fusion protein (human EphA2 fused with the Fc portion of a human IgG1) (human) (UniProt P29317); assay: single point capture ELISA, 20 ng goat anti-human Fab, biotinylated EphA2-Fc 300 ng/well
[12] = biological target: Human EphA2-Fc fusion protein (human EphA2 fused with the Fc portion of a human IgG1) (human) (UniProt P29317); assay: single point capture ELISA, periplasmic extracts from 15 ml culture, 500 ng goat anti-human Fab
[13] = biological target: Human EphA2-Fc fusion protein (human EphA2 fused with the Fc portion of a human IgG1) (human) (UniProt P29317); assay: single point capture ELISA, periplasmic Fab on 500 ng goat anti-human Fab, biotinylated EphA2-Fc 300 ng/well
[14] = biological target: T1, Human EphA2-Fc fusion protein (human EphA2 fused with the Fc portion of a human IgG1) (human, UniProt P29317 24-534, limits assumed); assay: SPR (BIAcore 3000), EphA2-Fc coupled to CM5 chip, IgG in solution, koff/kon
T1 construct: also called biotinylated human EphA2-Fc; not shown: Fc portion of a human IgG1
Procedure: (§1) IgGs were diluted in 0.01 M HEPES pH 7.4 containing 0.15 M NaCl, 3 mM EDTA and 0.005% P20. All subsequent dilutions were made in the same buffer. All binding experiments were performed at 25° C. with IgG concentrations typically ranging from 100 nM to 0.2 nM at a flow rate of 75 μL/min; data were collected for approximately 25 min and one 1-min pulse of 1 M NaCl, 50 mM NaOH was used to regenerate the surfaces. IgGs were also flowed over an uncoated cell and the sensorgrams from these blank runs subtracted from those obtained with EphA2-Fc-coupled chips. Data were fitted to a 1:1 Langmuir binding model. This algorithm calculates both the kₒₙ and the koff, from which the apparent equilibrium dissociation constant, KD, is deduced as the ratio of the two rate constants (koff/kₒₙ).

[15] = biological target: T1, Human EphA2-Fc fusion protein (human …); assay: SPR (BIAcore 3000), EphA2-Fc coupled to CM5 chip, IgG in solution, 1:1 Langmuir fit
Procedure: as §1

[16] = biological target: T1, Human EphA2-Fc fusion protein (human …); assay: BIAcore, human IgG1 format on immobilized EphA2-Fc
[17] = biological target: T1, Human EphA2-Fc fusion protein (human …); assay: SPR (BIAcore 3000), EphA2-Fc coupled to CM5 chip (~500 RU), IgG in solution, 1:1 Langmuir fit
Procedure: (§2) EphA2-Fc was coupled to the dextran matrix of a CM5 sensor chip (Pharmacia Biosensor) using an Amine Coupling Kit as described (B. Johnsson et al., 1991, Anal. Biochem. 198: 268-277) at a surface density of approximately 500 RU. IgGs were diluted in 0.01 M HEPES pH 7.4 containing 0.15 M NaCl, 3 mM EDTA and 0.005% P20. All subsequent dilutions were made in the same buffer. All binding experiments were performed at 25° C. with IgG concentrations typically ranging from 100 nM to 0.2 nM at a flow rate of 75 μL/min; data were collected for approximately 25 min and two 30-sec pulse of 1M NaCl, 50 mM NaOH was used to regenerate the surfaces. IgGs were also flowed over an uncoated cell and the sensorgrams from these blank runs subtracted from those obtained with EphA2-Fc-coupled chips. Data were fitted to a 1:1 Langmuir binding model. This algorithm calculates both the kₒₙ and the koff, from which the apparent equilibrium dissociation constant, KD, is deduced as the ratio of the two rate constants (koff/kₒₙ).

[18] = biological target: T1, Human EphA2-Fc fusion protein (human …); assay: SPR (BIAcore 3000), EphA2-Fc coupled to CM5 chip (~500 RU), IgG in solution, koff/kon
Procedure: as §2

T1 sequence (P29317 24-534 limits assumed): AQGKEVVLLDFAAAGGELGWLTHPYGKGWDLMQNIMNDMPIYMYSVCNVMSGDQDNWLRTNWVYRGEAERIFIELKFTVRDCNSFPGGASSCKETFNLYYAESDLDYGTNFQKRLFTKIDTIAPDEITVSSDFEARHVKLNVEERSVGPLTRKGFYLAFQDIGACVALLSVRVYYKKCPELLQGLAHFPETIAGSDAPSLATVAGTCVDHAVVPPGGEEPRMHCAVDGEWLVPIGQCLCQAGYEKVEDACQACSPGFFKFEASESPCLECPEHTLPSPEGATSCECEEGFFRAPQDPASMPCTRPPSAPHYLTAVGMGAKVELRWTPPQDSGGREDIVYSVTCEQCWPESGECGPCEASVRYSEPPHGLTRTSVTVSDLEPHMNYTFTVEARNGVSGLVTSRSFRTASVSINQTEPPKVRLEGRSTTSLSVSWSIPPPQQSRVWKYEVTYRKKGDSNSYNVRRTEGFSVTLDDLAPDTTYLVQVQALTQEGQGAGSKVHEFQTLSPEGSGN
Chain of Human EphA2-Fc fusion protein (human EphA2 fused with the Fc portion of a human IgG1) (human) (P29317 24-534 limits assumed): as above

Question: How did the OD450 (background signal) [1] turn out when “irrelevant antibody (background control of Example 2)” was run?
Answer: Its OD450 (background signal) is 0.3 OD450.

Question: How did the OD450 (background signal) [2] turn out when irrelevant antibody (MEDI-493) was run?
Answer: Its OD450 (background signal) is 0.1 to 0.4 OD450.

Question: What about the OD450 (background signal) [3] of the same molecule?
Answer: Its OD450 (background signal) is 0.2 OD450.

Question: And the OD450 (background signal) [4]?
Answer: Its OD450 (background signal) is 0.3 OD450.

Question: What about the OD450 (background signal) [5] of the same molecule?
Answer: The OD450 (background signal) was 0.07 to 0.1 OD450.

Question: What about the OD450 (background signal) [6] of the same molecule?
Answer: The OD450 (background signal) was 0.3 OD450.

Question: And the OD450 (background signal) [7]?
Answer: The OD450 (background signal) was 0.1 OD450.

Question: And the OD450 (background signal) [8]?
Answer: The OD450 (background signal) was 0.06 to 0.2 OD450.

Question: And the OD450 (background signal) [9]?
Answer: Its OD450 (background signal) is 0.2 OD450.

Question: And the OD450 (background signal) [10]?
Answer: The OD450 (background signal) was 0.2 OD450.

Question: What about the OD450 (background signal) [11] of the same molecule?
Answer: Its OD450 (background signal) is 0.1 OD450.

B1: VH-2G6/VL-12C8 Fab (framework-shuffled, fully humanized clone from library B) (Fab, from another filing, V domains shown)
VH: EVQLVESGGGVVRPGGSLRLSCAASGFTVSDYSMNWVRQAPGKGLEWIGFIRNKANDYTTEYSASVKGRFTISRDDSKNTLYLQMNSLKTEDTAVYYCTTYPRYHAMDSWGQGTMVTVSS
VL: AIQLTQSPSSLSASVGDRVTITCRASQSISNNLHWYLQKPGQSPQLLIYYVFQSISGVPSRFSGSGSGTDFTLTISSLQPEDFATYYCQQSNSWPLTFGGGTKLEIK
Question: What does the source list for B1?
Answer: [specific OD450/background OD450] ratio [12]: 40; OD450 [13]: 2.8 OD450

B2: mAb B233 (mouse anti-human EphA2 monoclonal antibody) (antibody, V domains shown)
VH: EVKLVESGGGLVQPGGSLSLSCAASGFTFTDYSMNWVRQPPGKALEWLGFIRNKANDYTTEYSASVKGRFTISRDNSQSILYLQMNALRAEDSATYYCVRYPRYHAMDSWGQGTSVTVSS
VL: DIVLTQSPATLSVTPGDSVNLSCRASQSISNNLHWYQQKSHESPRLLIKYVFQSISGIPSRFSGSGSGTDFTLSINSVETEDFGMYFCQQSNSWPLTFGAGTKLELK
notes: Murine hybridoma antibody; also called B233 (murine); parental mAb B233
Question: For B2, which Kd [14] is on record?
Answer: Its Kd is 0.4 nM.

Question: What about the koff [15] of the same molecule?
Answer: Its koff is 0.00011 s⁻¹.

Question: What about the kon [15] of the same molecule?
Answer: Its kon is 280000 M⁻¹ s⁻¹.

B3: VH-6H11/VL-8G7 (humanized) full length human IgG1 (antibody, V domains shown)
VH: EVQLVESGGGLVQPGGSLRLSCAASGFTFSDYSMNWVRQAPGKGLEWVAFIRNKANDYTTEYSASVKGRFTISRDNSKNTLYLQMNSLRAEDTAMYYCARYPRYHAMDSWGQGTLVTVSS
VL: EIVLTQSPATLSVSPGERATLSCRASQSISNNLHWYQQKPGKAPKSLIYYVFQSISGVPSRFSGSGSGTDFTLTINSLEAEDAATYYCQQSNSWPLTFGGGTKVDIK
notes: Human IgG1 / human kappa, expressed in HEK 293 cells
Question: Which results are given for B3?
Answer: Kd [14]: 1.9 nM; koff [15]: 0.00018 s⁻¹; kon [15]: 96000 M⁻¹ s⁻¹; fold avidity decrease against parental mAb B233 [16]: 6 fold

B4: VH-7E8/VL-8G7 (humanized) full length human IgG1 (antibody, V domains shown)
VH: B1 VH with V11L, R13K, V29F, P41S, I48V, M115L
VL: B3 VL
notes: as for B3
Question: For B4, which Kd [14] is on record?
Answer: Its Kd is 48 nM.

Question: What about the koff [15] of the same molecule?
Answer: The koff was 0.00045 s⁻¹.

Question: And the kon [15]?
Answer: Its kon is 9300 M⁻¹ s⁻¹.

Question: What about the “fold avidity decrease against parental mAb B233” value [16] of the same molecule?
Answer: Its value is 160 fold.

B5: VH-4H5/VL-4H5 full length human IgG1 (antibody, V domains shown)
VH: QVQLLESGGGLVQPGGSLRLSCAASGFTFSSYTMSWVRQAPGQALEWMGTISSGGTYTYYPDSVKGRFTISRDNAKNSLYLQMNSLRAEDTAVYYCAREAIFTYWGRGTLVTVSS
VL: DIQLTQSPSSLSASVGDRVTITCKASQDINNYLSWYQQKPGQAPRLLIYRANRLVDGVPDRFSGSGYGTDFTLTINNIESEDAAYYFCLKYDVFPYTFGQGTKVEIK
notes: as for B3
Question: What does the source list for B5?
Answer: koff [17]: 6.6e-05 s⁻¹; kon [17]: 980000 M⁻¹ s⁻¹; fold avidity increase against parental mAb EA2 [16]: 90 fold; Kd [18]: 0.067 nM

B6: VH-4H5/VL-“corrected” 4H5 full length human IgG1 (antibody, V domains shown)
VH: B5 VH
VL: B5 VL with V93E
notes: Human IgG1 / human kappa, expressed in HEK 293 cells; also called 4H5 corrected
Question: B6 was tested. Which koff [17] did it give?
Answer: The koff was 0.00105 s⁻¹.

Question: And the kon [17]?
Answer: Its kon is 750000 M⁻¹ s⁻¹.

Question: What about the “fold avidity increase against parental mAb EA2” value [16] of the same molecule?
Answer: The value was 4 fold.

Question: And the Kd [18]?
Answer: Its Kd is 1.4 nM.

B7: mAb EA2 (mouse anti-human EphA2 monoclonal antibody) (antibody, V domains shown)
VH: DVKLVESGGGLVKPGGSLKLSCAASGFTFSSYTMSWVRQTPEKRLEWVATISSGGTYTYYPDSVKGRFTISRDNAKNTLYLQMSSLKSEDTAMYYCTREAIFTYWGQGTLVTVSA
VL: DIKMTQSPSSMYASLGERVTITCKASQDINNYLSWFQQKPGKSPKTLIYRANRLVDGVPSRFSGSGSGQDYSLTISSLEYEDMGIYYCLKYDEFPYTFGGGTKLEIK
notes: Murine hybridoma antibody; also called EA2 (murine); parental mAb EA2
Question: With B7 as the molecule, how does the koff [17] read?
Answer: Its koff is 0.00307 s⁻¹.

Question: And the kon [17]?
Answer: Its kon is 517000 M⁻¹ s⁻¹.

Question: And the Kd [18]?
Answer: Its Kd is 5.94 nM.

B8: VH-233/VL-233 IgG (chimaeric form of mAb B233, full length human IgG1) (antibody, V domains shown)
VH: B2 VH
VL: B2 VL
notes: Human IgG1 / human kappa constant regions, expressed in HEK 293 cells; also called VH-B233/VL-B233 (chimeric); chimaeric B233
Question: Which Kd [14] does the source give for B8 here?
Answer: The Kd was 0.3 nM.

Question: What about the koff [15] of the same molecule?
Answer: The koff was 8e-05 s⁻¹.

Question: And the kon [15]?
Answer: Its kon is 240000 M⁻¹ s⁻¹.

B9: VH-2G6/VL-12C8 (humanized) full length human IgG1 (antibody, V domains shown)
VH: B1 VH
VL: B1 VL
notes: as for B3
Question: What does the source list for B9?
Answer: Kd [14]: 3 nM; koff [15]: 0.00019 s⁻¹; kon [15]: 64000 M⁻¹ s⁻¹; fold avidity decrease against parental mAb B233 [16]: 10 fold
